Assay results as given in PMC11576762.

Target: human TPC1 with C-terminal mVenus (human) (UniProt Q9ULQ1)
Assay: FRET or BRET; Two-hybrid FRET in live HEK293 cells; donor mTq2 constructs (0.7 µg DNA), acceptor mVenus constructs (1.5 µg DNA); confocal imaging, regions of interest around mVenus-positive lysosomes; maximum FRET efficiency from two-hybrid curves; no apilimod

FRET efficiency: 29%
Substance: mTq2-Rab5 (from UniProt P20339 1-215) (natural protein)
